In US9702869B2, “Assays, antibodies, immunogens and compositions related to 5-FU” (WELLSTAT DIAGNOSTICS, LLC, priority 2011, dated 2017):

Columns and labels:
Assay type in all cases: binding
[1] = Indirect antibody ELISA, cross-reactivity with DH-5-FU; conditions: Table 3; (IC50 for 5-FU/IC50 for testing chemical)%
Description: (§1) This indirect antibody ELISA assay 5-FU assay was constructed using either 1-3C-5-FU-BSA or 1-5C-5-FU-BSA as antibody capture reagent and a horseradish perioxidase (HRP) conjugated goat anti-mouse antibody as the antibody detector reagent. The binding of 5-FU antibody was detected with 3,3,5,5-TetraMethylBenzidine (TMB) as the HRP enzyme substrate. The 5-FU ELISA assay signal (OD450) decreased proportionally to the increasing concentration of 5-FU. The 5-FU IC50 and tegafur cross-reactivity were determined as in the previous section.
(§2) In addition to tegafur, several 5-FU structurally related chemicals were also evaluated for their cross-reactivity to the antibodies generated with 5-FU conjugate with the 3-carbon linker and were summarized below in Table 3. […] However, antibody 36H11 was highly specific for 5-FU and was detected for about 12% or lower cross-reactivity with tegafur.

[2] = Hybridoma supernatant competition test in ECL bridging assay; conditions: hybridoma culture supernatant; signal decreased in the presence of low level of 5-FU
Description: Hybridomas were screened between days 10-14 for the secretion of 5-FU antibody by the 5-FU antibody assay (Bridging-assay) described before. 25 μL of culture supernatant were transferred to an assay plate and mixed with 50 μL of 5-FU antibody assay master mix containing 100 ng/mL of each Bi-1-3C-5-FU-BSA and TAG Plus 1-3C-5-FU-BSA in 200 μg/mL of M280-SA beads. Samples were incubated for 30 minutes with shaking. Beads were recovered and resuspended in 150 μL of DILUENT and read in an M384 analyzer with 100 μL draw volume. Hybridomas identified from plates with greater than 20% of growing wells were re-cloned by limiting dilution in 96-well plate at 0.3 and 1.0 cells/well.
5-FU antibody specificity and cross-reactivity was tested on hybridomas that were identified as positive for 5-FU binding. […]
Typically, 25 μL of culture supernatant were mixed with 50 μL of 5-FU assay master mix containing 100 ng/mL of each Bi-1-3C-5-FU-BSA and TAG Plus 1-3C-5-FU-BSA in 200 μg/mL of M280-SA beads with or without competing chemicals. […] Beads were recovered and resuspended in 150 μL of DILUENT and read in an M384 analyzer with 100 μL draw volume.
X_RCT=cross-reactivity (calculated 5-FU concentration/10 μg/mL).

[3] = Indirect antibody ELISA, cross-reactivity with cytosine; conditions: Table 3; (IC50 for 5-FU/IC50 for testing chemical)%
Description: as §1, §2

[4] = Indirect antibody ELISA, cross-reactivity with thymine; conditions: Table 3; (IC50 for 5-FU/IC50 for testing chemical)%
Description: as §1, §2

[5] = Indirect antibody ELISA, cross-reactivity with uracil; conditions: Table 3; (IC50 for 5-FU/IC50 for testing chemical)%
Description: as §1, §2

[6] = Indirect antibody ELISA, cross-reactivity with tegafur; conditions: (IC50 for 5-FU/IC50 for testing chemical)%
Description: In this experiment, antibody capture reagents were 5-FU BSA conjugates modified at the 5-FU position 1 with either 3-carbon or 5-carbon linkers. 5-FU was conjugated to BSA by mixing 1-5C-5-FU-NHS ester with BSA at a challenge ratio of 12:1 (molar ratios of 1-5C-5-FU-NHS to BSA) in a phosphate buffer containing a phosphate buffered saline containing 10.5 mM KH2PO4, 139.5 mM K2HPO4 and 150.6 mM NaCl, =pH 7.7-7.9 (typically pH 7.8) for 1 hour or more incubation at room temperature (typically 1 hour incubation at room temperature). After the incubation, unbound 1-5C-5-FU-NHS ester was removed by 3 buffer exchanges in an AmiconUltra4-30K filter (Millipore, Cat#UFC803024). […]
This indirect antibody ELISA assay 5-FU assay was constructed using either 1-3C-5-FU-BSA or 1-5C-5-FU-BSA as antibody capture reagent and a horseradish perioxidase (HRP) conjugated goat anti-mouse antibody as the antibody detector reagent. The binding of 5-FU antibody was detected with 3,3,5,5-TetraMethylBenzidine (TMB) as the HRP enzyme substrate. […] The 5-FU IC50 and tegafur cross-reactivity were determined as in the previous section. […]
In addition to tegafur, several 5-FU structurally related chemicals were also evaluated for their cross-reactivity to the antibodies generated with 5-FU conjugate with the 3-carbon linker and were summarized below in Table 3. […]

[7] = ECL assay with TAG Plus mAb as detector and position-3 modified 5-FU capture reagent; conditions: Bi-3-5C-5-FU-HSA pre-bound M280-SA beads
Description: Unless otherwise specifically mentioned, a 5-FU immunoassay was set up by mixing the same volumes of sample with capture reagent first and then with detector reagent in a 96 well plate. After adding reagents, samples were mixed for 5 minutes at room temperature with shaking. After the incubation, beads were recovered by attaching a plate magnet to the assay plate for 2 minutes and resuspending in 150 μL of DILUENT. Samples were either read in an M384 or an M1MR analyzer with 100 μL draw volume under the 96 standard round plate protocol.
The performance of TAG Plus conjugated antibody 61C6 as an assay detector reagent was studied. Assay performance was evaluated in 5-FU Antibody Screening Buffer with a 5-fold 5-FU serial dilution curve from 150 μg/mL to 9.6 ng/mL as 5-FU calibrators (samples).
A total of 5 capture reagents were evaluated in this experiment. Three capture reagents were 5-FU bound to M280-SA beads through biotinylated BSA including Bi-1-3C-5-FU-BSA, Bi-1-5C-5-FU-BSA and Bi-3-5C-5-FU-HSA pre-bound to M280-SA beads at the ratio of 1.0 μg capture reagent per mg beads (200 μg/mL). […]
The assay detector reagent used was TAG Plus 5-FU mAb 61C6 at the concentration of 2.0 μg/mL. […] The plate was read in an M384 ECL Analyzer with a draw volume of 100 μL under 96 standard plate protocol. […]

[8] = Indirect antibody ELISA on 5-FU-BSA coated plates, competition with 5-FU
Description: In this experiment, antibody capture reagents were 5-FU BSA conjugates modified at the 5-FU position 1 with either 3-carbon or 5-carbon linkers. 5-FU was conjugated to BSA by mixing 1-5C-5-FU-NHS ester with BSA at a challenge ratio of 12:1 (molar ratios of 1-5C-5-FU-NHS to BSA) in a phosphate buffer containing a phosphate buffered saline containing 10.5 mM KH2PO4, 139.5 mM K2HPO4 and 150.6 mM NaCl, =pH 7.7-7.9 (typically pH 7.8) for 1 hour or more incubation at room temperature (typically 1 hour incubation at room temperature). After the incubation, unbound 1-5C-5-FU-NHS ester was removed by 3 buffer exchanges in an AmiconUltra4-30K filter (Millipore, Cat#UFC803024). BSA conjugated with 5-FU (5-FU-BSA) was concentrated and stored in the same phosphate buffer (pH 7.8).
This indirect antibody ELISA assay 5-FU assay was constructed using either 1-3C-5-FU-BSA or 1-5C-5-FU-BSA as antibody capture reagent and a horseradish perioxidase (HRP) conjugated goat anti-mouse antibody as the antibody detector reagent. The binding of 5-FU antibody was detected with 3,3,5,5-TetraMethylBenzidine (TMB) as the HRP enzyme substrate. The 5-FU ELISA assay signal (OD450) decreased proportionally to the increasing concentration of 5-FU. The 5-FU IC50 and tegafur cross-reactivity were determined as in the previous section. […]

B1: mAb 61C6: monoclonal anti-5-FU antibody, IgG2b κ; heavy chain SEQ ID NO:2, light chain SEQ ID NO:6; from 3-carbon linker immunogen (antibody, listed as Mus musculus)
heavy: MDWLWNLLFLMAAAQSIQAQIQLVQSGPELKKPGETVTISCKASGYTLTNYGMNWVKQAPGKGLKWMGWINTNSGEPTYVEEFKGRFAFSLETSVSTVYLQISDLKHEDTATYFCARWGPHFNAYGWFAYWGQGTLVTVSAAKTTPPSVYPLAPGCGDTTGSSVTLGCLVKGYFPESVTVTWNSGSLSSSVHTFPALLQSGLYTMSSSVTVPSSTWPSQTVTCSVAHPASSTTVDKKLEPSGPISTINPCPPCKECHKCPAPNLEGGPSVFIFPPNIKDVLMISLTPKVTCVVVDVSEDDPDVQISWFVNNVEVHTAQTQTHREDYNSTIRVVSTLPIQHQDWMSGKEFKCKVNNKDLPSPIERTISKIKGLVRAPQVYILPPPAEQLSRKDVSLTCLVVGFNPGDISVEWTSNGHTEENYKDTAPVLDSDGSYFIYSKLNMKTSKWEKTDSFSCNVRHEGLKNYYLKKTISRSPGK
light: MMSSAQFLGLLLLCFQGTRCYIQMTQTASSLSASLGDRVTISCRASQDIWNYLNWYQQKPDGTIKLLIYYKSRLHSGVPSRFSGSGSGIDFSLTISNLEQEDFATYFCQQGHTLPWTFGGGSKLEIKRADAAPTVSIFPPSSEQLTSGGASVVCFLNNFYPKDINVKWKIDGSERQNGVLNSWTDQDSKDSTYSMSSTLTLTKDEYERHNSYTCEATHKTSTSPIVKSFNRNEC
notes: monoclonal anti-5-FU antibody, IgG2b κ; from 3-carbon linker immunogen
Cross-reactivity DH-5-FU [1]: 1.4%
specificity to 5-FU [2]: better specificity to 5-FU
Cross-reactivity Cytosine [3]: 0.57%
Cross-reactivity Thymine [4]: Undetectble
Cross-reactivity Uracil [5]: 1.4%
Cross-reactivity Tegafur ([6]; Table 3): 28%
Tegafur Cross-reactivity** ([6]; indirect ELISA): 28%
reactivity with position 3 modified 5-FU (3-5C-5-FU-HSA) capture reagent [7]: reactive
Cross-reactivity 5-FU ([8]; Table 3, (IC50 for 5-FU/IC50 for testing chemical)%, reference): 100%
Ratio of IC50 on 5-FU Conjugates with 5-carbon Linker vs. 3-carbon Linker ([8]; indirect ELISA, 5-FU IC50 on 5-carbon vs 3-carbon linker 5-FU conjugate): 4.7
